Measurements: article PMC6077149 (Molecular Therapy. Methods & Clinical Development, 2018)

Key:
[1] = molecular target: Fc (huIgG1-Fc fused to the Avi tag) (human); assay: SEC
SEC = molecular target: the molecule itself; assay: SEC
[2] = molecular target: DARPin 2B7 fused to the measles virus H protein (DARPin-H); assay: flow cytometry on cells
[3] = molecular target: DARPin SB4 fused to the measles virus H protein (DARPin-H); assay: flow cytometry on cells
[4] = molecular target: four DARPins (SD8, SK14, 2K19, 2B7) and the scFv Fab7; assay: flow cytometry on cells

**Q.** For “Fc (huIgG1-Fc fused to the Avi tag) (domain or fragment)”, which stoichiometry N [1] is on record?
**A.** 2

B1: GluA4-Fc (amino-terminal domain of GluA4 fused to huIgG1-Fc and an Avi tag) (Fc fusion)
chain: AFPSSVQIGGLFIRNTDQEYTAFRLAIFLHNTSPNASEAPFNLVPHVDNIETANSFAVTNAFCSQYSRGVFAIFGLYDKRSVHTLTSFCSALHISLITPSFPTEGESQFVLQLRPSLRGALLSLLDHYEWNCFVFLYDTDRGYSILQAIMEKAGQNGWHVSAICVENFNDVSYRQLLEELDRRQEKKFVIDCEIERLQNILEQIVSVGKHVKGYHYIIANLGFKDISLERFIHGGANVTGFQLVDFNTPMVTKLMDRWKKLDQREYPGSETPPKYTSALTYDGVLVMAETFRSLRRQKIDISRRGNAGDCLANPAAPWGQGIDMERTLKQVRIQGLTGNVQFDHYGRRVNYTMDVFELKSTGPRKVGYWNDMDKLVLIQD
modifications: biotin on the Avi tag in the biotinylated form (roughly 76% biotinylated)
**Q.** Which “stoichiometry N” value (SEC) does the source give for B1 here?
**A.** 4

**Q.** What about the Kd [2] of the same molecule?
**A.** 8.4 nM

**Q.** What about the Kd [3] of the same molecule?
**A.** 19 nM

**Q.** And the Kd [4]?
**A.** 1.6 to 3.7 nM
